Experiment [1] addresses T1, α11β1 I Domain (Homo sapiens, UniProt Q9UKX5).
T1 sequence (Q9UKX5 164-345 limits assumed): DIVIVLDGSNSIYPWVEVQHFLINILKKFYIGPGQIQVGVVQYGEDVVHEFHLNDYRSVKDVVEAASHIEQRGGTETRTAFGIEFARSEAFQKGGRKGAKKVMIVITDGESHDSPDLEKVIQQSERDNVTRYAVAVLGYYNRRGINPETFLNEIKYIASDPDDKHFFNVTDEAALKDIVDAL
The experiment can be described thus: SPR binding to α11β1 I Domain. Particulars: in words. The method, then:
(§1) The affinity of antibodies for human α11β1 was measured by surface plasmon resonance assay (SPR). Affinity was measured at pH 7.6 and 25° C. with a Biacore T200 instrument. Anti-HIS antibody was immobilized on the SPR sensor surface using EDC/NHS covalent attachment. HIS-tagged human α11β1 was captured on the sensor surface and a single-cycle kinetics assay was used. Increasing concentrations of test antibody were injected in series over the sensor-bound α11β1. Dissociation was monitored for 1000 seconds. A sensor surface with only anti-HIS antibody and a series of blank injections were used to double-reference subtract the data. A 1:1 Langmuir model was fit to the data to estimate the kinetic association and dissociation constants. The affinity (equilibrium dissociation constant) of the interaction was calculated by dividing the kinetic dissociation constant by the kinetic association constant. Between injection cycles α11β1 and bound antibody were removed with an injection of 10 mM glycine at pH 1.5.
(§2) The binding affinity of antibodies for the α11β1 Headpiece and α11β1 I Domain as measured by SPR is shown in FIG. 10A and FIG. 10B, respectively.

For experiment [2], the system named is A549 cell xenografts. The experiment can be described thus: Tumor xenograft model. Particulars: A549 xenograft, SCID mice. Type of experiment: in vivo, C.B-17 SCID mice. How it is done: Fifty-six female C.B-17 SCID mice were inoculated with A549 cells (5×10^6 cells/mouse) subcutaneously in the flank. Once tumor volume reached ˜100 mm^3, animals were randomized amongst 7 groups of 8 mice each. Mice were then treated intraperitonealy every 3 days for a total of 7 doses with isotype controls or novel mAbs 79E3E3, 16E10 and 9G04 (2 and 20 mg/kg) or with docetaxel at 10 mg/kg every 4 days for a total of 6 doses. Tumor volumes and body weights were recorded twice a week with a gap of 2-3 days in between two measurements until any of the following conditions defined were observed: loss of 20% or more body weight; tumors that inhibit normal physiological function such as eating, drinking, and mobility; ulcerated tumors; tumor size greater than 2000 mm^3 and clinical observations of prostration, paralysis, seizures and hemorrhages.
In this example, studies were performed to determine if inhibition of α11β1 function with mAb results in xenograft growth inhibition. As shown in FIG. 16 and Table 4, blocking α11β1 on mouse CAFs impeded xenograft growth in SCID mice.

Experiment [3] relates to CHO-K1 human α11-mediated rat tail type I collagen gel contraction. The experiment can be described thus: Collagen gel contraction assay. Type of experiment: cell-based. Particulars: compared to untreated condition. The method, then: 24-well plates were blocked with 2% BSA in PBS overnight at 37° C. The following day, the plates were washed 3 times with PBS before being used in the assay. Human CHO cell lines expressing α11 were harvested and resuspended at 1.25×10^6 in ExpiCHO Expression Medium (Gibco™ Cat #A2910002). The collagen gel solution was prepared by diluting 3 mg/mL stock collagen type I (Gibco™ Collagen I Rat Protein, Tail Cat #A1048301) to 1 mg/mL in the media containing the CHO cells. Sodium hydroxide was added to the solution to neutralize the pH and 400 μL of the collagen solution was added to each well of the 24-well plates. For the wells where the antibodies were included in the collagen gel solution, CHO cells were prepared at 2.5×10^6 and the antibodies were prepared at 2× final concentration in ExpiCHO media. The cells and antibodies were then combined 1:1 before the addition of the stock collagen type 1. The gels were allowed to polymerize for 60 minutes at 37° C. Antibodies were added to the ExpiCHO media, which was then layered on top of the polymerized gel (400 μL/well). The gels were incubated for 6 days at 37° C. before gel contraction was quantified. Images of each well were analyzed using Image J and gel contraction was determined as a percentage of the initial gel area.
Selected exemplary antibodies were tested for the ability to inhibit cell-mediated 3D gel contraction because this ability is directly linked to the functionality of the exemplary antibodies.

For experiment [4], the system named is α11β1 Headpiece. Put plainly: SPR binding to α11β1 Headpiece. Set-up: species or system human. Particulars: in words. The method, then: as §1, §2
Experiment [5] deals with T1, α11β1 I Domain. Put plainly: ELISA binding to in-house generated α11β1 I domain. Set-up: An in-house generated I domain of α11β1 was used; made in house. Particulars: in words. How it is done:
0.25 μg/mL of target antigen (recombinant human or mouse α11β1) was plated in a 96-well plate over night at 4° C. Plates were washed (PBS with 0.1% Tween-20), blocked (PBS with 2% BSA and 0.05% Tween-20) for 1 hour at room temperature and incubated with a range of antibody concentrations for 1 hour at room temperature. Subsequently, plates were washed and incubated with biotinylated anti-rabbit/mouse/human IgG in a 1:1000 dilution buffer and incubated for 1 hour at room temperature. After washing the plates, Streptavidin HRP was added at 1:200 in dilution buffer and incubated for 1 hour at room temperature. Ultra TMB ELISA substrate solution was added and the plates incubated for 5 minutes on a plate shaker. The reaction was stopped by adding stop solution to each well and plates were read at 450 nm.
Data was also collected to determine whether antibodies of interest bind to the I domain of α11β1. An in-house generated I domain of α11β1 was used. […] Mouse antibodies 10-F23, 10-L15, 7-O8, 6-A12, 9-G05 and 9-E16 and rabbit antibodies 7-H12 and 2-D3 were also tested for binding against the in-house generated α11β1 I domain. FIGS. 3A and 3B show graphs illustrating binding data from exemplary mAbs.

The target of experiment [6] is T2, adhesion of CHO-K1 cells expressing human α11 to rat tail type I collagen (Homo sapiens, UniProt Q9UKX5).
T2 construct: expressed in transfected cells; host or cells: CHO-K1
T2 sequence (Q9UKX5 23-1188): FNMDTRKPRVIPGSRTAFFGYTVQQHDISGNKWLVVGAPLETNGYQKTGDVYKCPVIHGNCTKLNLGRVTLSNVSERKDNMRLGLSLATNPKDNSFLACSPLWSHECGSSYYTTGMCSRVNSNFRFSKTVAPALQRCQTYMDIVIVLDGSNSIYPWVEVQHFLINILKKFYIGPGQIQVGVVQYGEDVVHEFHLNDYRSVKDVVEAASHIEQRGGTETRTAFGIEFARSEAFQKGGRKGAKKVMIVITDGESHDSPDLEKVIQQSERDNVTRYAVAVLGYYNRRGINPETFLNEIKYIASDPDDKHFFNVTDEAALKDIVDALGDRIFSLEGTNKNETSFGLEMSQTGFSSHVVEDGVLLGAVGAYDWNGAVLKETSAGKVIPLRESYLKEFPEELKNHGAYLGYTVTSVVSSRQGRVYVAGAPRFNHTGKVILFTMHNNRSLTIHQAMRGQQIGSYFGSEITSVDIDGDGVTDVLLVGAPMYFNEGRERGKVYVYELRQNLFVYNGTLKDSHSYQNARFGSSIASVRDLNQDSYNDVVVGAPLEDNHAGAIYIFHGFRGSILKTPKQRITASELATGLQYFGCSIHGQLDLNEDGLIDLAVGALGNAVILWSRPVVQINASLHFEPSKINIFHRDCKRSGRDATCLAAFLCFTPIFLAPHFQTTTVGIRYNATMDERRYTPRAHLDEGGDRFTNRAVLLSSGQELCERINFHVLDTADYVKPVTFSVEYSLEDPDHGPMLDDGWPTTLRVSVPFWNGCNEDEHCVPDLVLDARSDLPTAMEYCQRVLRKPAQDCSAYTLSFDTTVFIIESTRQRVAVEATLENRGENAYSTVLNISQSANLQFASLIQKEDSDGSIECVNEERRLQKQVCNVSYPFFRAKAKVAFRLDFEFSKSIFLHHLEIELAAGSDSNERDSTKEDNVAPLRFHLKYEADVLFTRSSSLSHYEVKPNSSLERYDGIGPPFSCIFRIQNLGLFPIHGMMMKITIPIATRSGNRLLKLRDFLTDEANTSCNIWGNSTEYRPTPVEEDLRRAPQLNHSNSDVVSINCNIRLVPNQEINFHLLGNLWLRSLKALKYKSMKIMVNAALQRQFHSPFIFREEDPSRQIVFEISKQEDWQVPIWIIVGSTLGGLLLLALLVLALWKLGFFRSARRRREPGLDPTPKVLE
Put plainly: Cell adhesion inhibition (CHO-K1 hu α11 cells to type I collagen, xCelligence). Type of experiment: cell-based. Particulars: in words. How it is done: 0.6×10^6 cells/mL were incubated with each antibody at a range of concentrations for 20 minutes at 37° C. E-Plate VIEW 96 PET plate coated with 100 ng/ml type I collagen or PBS overnight at room temperature was blocked in 3% BSA for 1 house at room temperature. After washing the plate with PBS, cell and antibody mixture was added to the wells and the plate was places into an xCelligence machine. Cell adhesion was recorded over 6 hours. The time point of maximum cell adhesion was used for comparison relative to control.
A CHO-K1 hu α11 cell line was used to assess the ability of mAbs to block α11β1-mediated binding to type I collagen. […] In the “Untreated” condition, cells were plated on type I collagen but no antibody was added and in the “Uncoated” condition, cells were seeded onto BSA-coated wells containing no type I collagen. Statistics were performed using one-way ANOVA followed by Dunnett's multiple comparisons test. […] Therefore, it is possible that these mAbs bind on an α11β1 domain that keeps the integrin in a low or intermediate affinity state. […] Nine human mAbs were also tested for their ability to inhibit the binding of human CHO-α11 cells to type I collagen.

“Also recorded” adds a separate entry of the source.

3 molecules from patent US20240317865A1, “ANTIBODIES AGAINST INTEGRIN ALPHA 11 BETA 1” (MOMENTA PHARMACEUTICALS, INC., priority 2020, published 2024) can be followed below.

B1: 16E10: rabbit anti-α11β1 mAb; heavy chain SEQ ID NO: 161, light chain SEQ ID NO: 162 (antibody)
heavy: METGLRWLLLVAVLKGVQCQSLEESGGDLVKPGASLTLTCRVSGFSFSSSYYMCWVRQAPGKGLEWIACIGTTRGSTYYATWAKGRFTISKISSTTVTLQMTSLTDADTATYFCARDATGYRINTIGLYFNLWGPGTLVTVSSGQPKAPSVFPLAPCCGDTPSSTVTLGCLVKGYLPEPVTVTWNSGTLTNGVRTFPSVRQSSGLYSLSSVVSVTSSSQPVTCNVAHPATNTKVDKTVAPSTCSKPMCPPPELPGGPSVFIFPPKPKDTLMISRTPEVTCVVVDVSQDDPEVQFTWYINNEQVRTARPPLREQQFNSTIRVVSTLPIAHQDWLRGKEFKCKVHNKALPAPIEKTISKARGQPLEPKVYTMGPPREELSSRSVSLTCMINGFYPSDISVEWEKNGKAEDNYKTTPTVLDSDGSYFLYSKLSVPTSEWQRGDVFTCSVMHEALHNHYTQKSISRSPGK
light: MDTRAPTQLLGLLLLWLPGARCAFELTQTPSSVEAAVGGTPTIKCQASQTIYSYLSWYQQKPGQPPKLLIYEASKLASGVPSRFSGSGSGTDYTLTISDLECADAATYYCQSYHGTASTEYNTFGGGTEVVVRGDPVAPTVLIFPPAADQVATGTVTIVCVANKYFPDVTVTWEVDGTTQTTGIENSKTPQNSADCTYNLSSTLTLTSTQYNSHKEYTCKVTQGTTSVVQSFNRGDC
Take B1: in experiment [1], the “Binding to α11β1 I domain (SPR)” value is listed as “do not bind”. Also, the “Tumor growth inhibition compared to isotype control” value in experiment [2] was “no significant inhibition of tumor growth”. Further, the “Inhibition of CHO-hu α11-mediated collagen gel contraction” value in experiment [3] is listed as “inhibited”. Besides, the “Binding to α11β1 headpiece domain (SPR)” value in experiment [4] is given as “do not bind”.

B2: 9-G05: mouse anti-α11β1 mAb; VH SEQ ID NO: 103, VL SEQ ID NO: 104 (antibody, V domains shown)
VH: EVQLQQSGPELVKPGASVKIPCKASGYTFPDYNMDWVKQSHGKSLEWIGYINPDNGGTIYNQKFKGKATLTVDKSSSTAYMELRSLTSEDTAVYYCARLDSSGYGYYAMDYWGQGTSVTVSS
VL: DIVLTQSPASLAVSLGQRATISCRASESVDNYGISFMHWYQQKPGQPPKLLIYRASNLDSEIPARFSGSGSRTDFTLTIDPVETDDVATYYCQQSYKDPRTFGGGTKLEIK
Consider B2, for which, in experiment [5], the “Binding to the I domain of α11β1” value is recorded as “I-domain binders; also recorded: bound the I domain”. In addition, in experiment [1], the “Binding to α11β1 I domain (SPR)” value is recorded as “do bind”. For the same molecule, in experiment [6], the “Inhibition of cell adhesion to type I collagen” value is “decrease cell adhesion to collagen”. Also, in experiment [3], the “Inhibition of CHO-hu α11-mediated collagen gel contraction” value is listed as “inhibited”.

B3: 79E3E3: rat anti-α11β1 mAb; VH SEQ ID NO: 145, VL SEQ ID NO: 146 (antibody, V domains shown)
VH: MDWLWNLLFLMVVAQSAQAQIQLVQSGPEVKKPGESVKISCKASGYTFTDYAMNWVKQAPGNGLKWMGWINTQTGKPTYADDFKQRFVFSLETSARTTYLQINNLNIEDTATYFCTRLGTGNTKGFAYWGQGTLVTVSS
VL: MESQTHVLISLLLCVSGTCGDILINQSPASLTVSAGERVTMSCKSSQSLLYSENNQDYLAWYQQKPGQFPKLLIYGASNRHTGVPDRFTGSGSGTDFTLTISSVQAEDLADYYCEQTYRYPFTFGSGTKLEIK
B3: the “Binding to the I domain of α11β1” value in experiment [5] is “high and I-domain binder”. Besides, the “Binding to α11β1 I domain (SPR)” value in experiment [1] was “do bind”. Further, the “Tumor growth inhibition compared to isotype control” value in experiment [2] was “significantly inhibited tumor growth”. The “Inhibition of CHO-hu α11-mediated collagen gel contraction” value in experiment [3] was “inhibited”.
